Test results taken from paper PMC4670726 (2015).

Tests used:
Assay in all cases: FP competition (Ki)
[1] = molecular target: T1, RHDF1 (Homo sapiens (Human), UniProt Q96CC6)
T1 chain: SLQRKKPPWLKLDIPS

[2] = molecular target: T2, JAZF1 (Homo sapiens (Human), UniProt Q86VZ6)
T2 chain: SLKKKIQPKLSLTLS

[3] = molecular target: T3, DOCK7 (Homo sapiens (Human), UniProt Q96N67)
T3 chain: RSAVRPASLNLNRSR

[4] = molecular target: T4, APBA2 (Homo sapiens (Human), UniProt Q99767)
T4 chain: RHEARPKSLNLL

[5] = molecular target: T5, PDE4B (Homo sapiens (Human), UniProt Q07343)
T5 chain: EGDGISRPTTLPLTTLPS

[6] = molecular target: T6, MYO9B (Homo sapiens (Human), UniProt Q13459)
T6 chain: LERPTSLALD

[7] = molecular target: T7, AAKG2 (Homo sapiens (Human), UniProt Q9UGJ0)
T7 chain: SQKRRSLRVHIP

[8] = molecular target: T8, GAB3b (Homo sapiens (Human), UniProt Q8WWW8)
T8 chain: KPQRKSRPPPLDLRNLS

[9] = molecular target: T9, IRS1 (Homo sapiens (Human), UniProt P35568)
T9 chain: RLARPTRLSL

[10] = molecular target: T10, DOCK5 (Homo sapiens (Human), UniProt Q9H7D0)
T10 chain: KAQRPKSLQLM

[11] = molecular target: T11, DCX (Mus musculus (Mouse), UniProt O88809)
T11 chain: SLRKHKVDLYLPLSL

[12] = molecular target: T12, KSR2 (Homo sapiens (Human), UniProt Q6VAB6)
T12 chain: KKKSKPLNLKI

[13] = molecular target: T13, CCNT2 (Homo sapiens (Human), UniProt O60583)
T13 chain: KKEKSGSLKLRIPIP

Kd [1]: > 100 µM
Kd [2]: > 100 µM
Kd [3]: 7.3 µM
Kd [4]: 10.8 µM
Kd [5]: 16.4 µM
Kd [6]: 15.9 µM
Kd [7]: > 100 µM
Kd [8]: 13.2 µM
Kd [9]: 3.5 µM
Kd [10]: 5.1 µM
Kd [11]: 16.7 µM
Kd [12]: 24.7 µM
Kd [13]: > 100 µM
B1: JNK1 (protein)
chain: DNNFYSVEIGDSTFTVLKRYQNLKPIGSGAQGIVCAAYDAILERNVAIKKLSRPFQNQTHAKRAYRELVLMKCVNHKNIIGLLNVFTPQKSLEEFQDVYIVMELMDANLCQVIQMELDHERMSYLLYQMLCGIKHLHSAGIIHRDLKPSNIVVKSDCTLKILDFGLARTAGTSFMMTPYVVTRYYRAPEVILGMGYKENVDLWSVGCIMGEMVCHKILFPGRDYIDQWNKVIEQLGTPCPEFMKKLQPTVRTYVENRPKYAGYSFEKLFPDVLFPADSEHNKLKASQARDLLSKMLVIDASKRISVDEALQHPYINVWYDPSEAEAPPPKIPDKQLDEREHTIEEWKELIYKEVMDLE
